Data from patent publication US20220403001A1, “PDE5 DERIVED REGULATORY CONSTRUCTS AND METHODS OF USE IN IMMUNOTHERAPY” (Obsidian Therapeutics, Inc., priority 2018, published 2022).

How the values were obtained:
hPDE5 mutants [1] = molecular target: T1, hPDE5 mutants (Homo sapiens, UniProt O76074); assay: GFP MFI by FACS in HCT116 cells transduced with hPDE5 constructs; format: cell-based; conditions: for Vardenafil Stabilization ratio / Sildenafil Stabilization ratio / GFP by FACS, Sildenafil 10 μM / GFP by FACS, Vardenafil 1 μM: hotspot constructs; for Vardenafil Stabilization ratio: 1 μM Vardenafil; for Sildenafil Stabilization ratio: 10 μM Sildenafil; for GFP by FACS, Sildenafil 10 μM / GFP by FACS, Vardenafil 1 μM: HCT116
Experimental: (§1) Desirable qualities of a DD include, low expression of the SRE in the absence of ligand and ligand dependent stabilization of the SRE. Constructs were generated using DDs linked to GFP using an SG linker. […] The mean fluorescence intensity (MFI) of GFP was analyzed by FACS. […] Destabilizing mutation coefficient less than 1 are desirable.
(§2) Mean fluorescence intensity (MFI) was measured by FACS. […] Destabilizing mutation coefficient ratios less than 1 are desirable.
(§3) Mean fluorescence intensity (MFI) was measured by FACS. […] Destabilizing mutation co-efficient ratios less than 1 are desirable.
(§4) Mean fluorescence intensity (MFI) was measured by FACS. […] Destabilizing mutation coefficient less than 1 are desirable.
as §4
(§5) Mean fluorescence intensity (MFI) of GFP was measured by FACS.
(§6) Mean fluorescence intensity (MFI) was measured by FACS.
(§7) The media containing the ligand was removed and fresh media without the ligand was added.
(§8) The properties of the DDs were analyzed in the presence and absence of ligands via FACS as previously described.
(§9) GFP fluorescence was measured by FACS.
(§10) The properties of the DDs were analyzed via FACS both in the presence and absence of ligands.
as §9

hPDE5 mutants [2] = assay: as above; format: cell-based, human; conditions: for Sildenafil Destabilizing mutation coefficient / Vardenafil Destabilizing mutation coefficient / GFP by FACS, Sildenafil 0 μM (DMSO) / GFP by FACS, Vardenafil 0 μM (DMSO): hotspot constructs; for Sildenafil Destabilizing mutation coefficient: DMSO control of Sildenafil; for Sildenafil Destabilizing mutation coefficient / Vardenafil Destabilizing mutation coefficient: vs OT-001075; for Vardenafil Destabilizing mutation coefficient: DMSO control of Vardenafil; for GFP by FACS, Sildenafil 0 μM (DMSO): HCT116, DMSO control of Sildenafil; for GFP by FACS, Vardenafil 0 μM (DMSO): HCT116, DMSO control of Vardenafil; for MFI: 48 hours, HCT 116 cells
Experimental: as §1, §2, §3, §4, §4, §5, §6, §7, §8, §9, §10, §9

hPDE5 mutants [3] = molecular target: T1, hPDE5 mutants; assay: Western blot of AcGFP/GFP protein levels in HCT 116 cells expressing hPDE5 mutants; format: cell-based; design: GFP protein levels (western blot); fused on or other part: AcGFP reporter through a linker; conditions: vardenafil vs DMSO, HCT 116, R732 mutants
Experimental: Protein expression analysis of the combination mutants was performed in parallel via western blot. […] GAPDH levels were also analyzed to ensure even protein loading.

| Substance | Vardenafil Stabilization ratio (hPDE5 mutants [1]) | Sildenafil Stabilization ratio (hPDE5 mutants [1]) | GFP by FACS, Sildenafil 10 μM (hPDE5 mutants [1]) | GFP by FACS, Vardenafil 1 μM (hPDE5 mutants [1]) | GFP protein levels (western blot) (hPDE5 mutants [3]) | Sildenafil Destabilizing mutation coefficient (hPDE5 mutants [2]) | Vardenafil Destabilizing mutation coefficient (hPDE5 mutants [2]) | GFP by FACS, Sildenafil 0 μM (DMSO) (hPDE5 mutants [2]) | GFP by FACS, Vardenafil 0 μM (DMSO) (hPDE5 mutants [2]) | further results |
| --- | --- | --- | --- | --- | --- | --- | --- | --- | --- | --- |
| OT-001199: hPDE5 R732E AcGFP construct | 0.77 | 1.07 | 316 | 212 | strong stabilization of GFP levels | 0.3 | 1.71 | 295 | 276 |  |
| OT-001196: hPDE5 R732S AcGFP construct | 0.7 | 0.98 | 746 | 399 | strong stabilization of GFP levels | 0.77 | 3.52 | 760 | 566 |  |
| OT-001195: hPDE5 R732H AcGFP construct | 1.06 | 2.02 | 710 | 328 | strong stabilization of GFP levels | 0.36 | 1.91 | 352 | 308 |  |
| OT-001204: hPDE5 R732K AcGFP construct | 3.74 | 4.64 | 765 | 423 | Modest ligand dependent stabilization of GFP levels | 0.17 | 0.7 | 165 | 113 |  |

Second part, led by results:

| Vardenafil Stabilization ratio (hPDE5 mutants [1]) | Sildenafil Stabilization ratio (hPDE5 mutants [1]) | GFP by FACS, Sildenafil 10 μM (hPDE5 mutants [1]) | GFP by FACS, Vardenafil 1 μM (hPDE5 mutants [1]) | GFP protein levels (western blot) (hPDE5 mutants [3]) | Substance | Sildenafil Destabilizing mutation coefficient (hPDE5 mutants [2]) | Vardenafil Destabilizing mutation coefficient (hPDE5 mutants [2]) | GFP by FACS, Sildenafil 0 μM (DMSO) (hPDE5 mutants [2]) | GFP by FACS, Vardenafil 0 μM (DMSO) (hPDE5 mutants [2]) | further results |
| --- | --- | --- | --- | --- | --- | --- | --- | --- | --- | --- |
| 0.93 | 1.64 | 516 | 290 | strong stabilization of GFP levels | OT-001201: hPDE5 R732N AcGFP construct | 0.32 | 1.94 | 315 | 313 |  |
| 1.15 | 1.98 | 546 | 270 | strong stabilization of GFP levels | OT-001197: hPDE5 R732T AcGFP construct | 0.28 | 1.46 | 276 | 235 | MFI (hPDE5 mutants [1]; Table 44, Vardenafil 0.01 μM, 48 h, HCT 116): 2854; MFI (hPDE5 mutants [1]; Table 44, Vardenafil 0.04 μM, 48 h, HCT 116): 6862; MFI (hPDE5 mutants [1]; Table 44, Vardenafil 3.33 μM, 48 h, HCT 116): 41788; MFI (hPDE5 mutants [1]; Table 44, Vardenafil 10 μM, 48 h, HCT 116): 48946; MFI (hPDE5 mutants [1]; Table 44, Vardenafil 30 μM, 48 h, HCT 116): 67364; MFI (hPDE5 mutants [1]; Table 44, Vardenafil 1000 μM, 48 h, HCT 116): 67364; MFI (hPDE5 mutants [1]; Table 45, Sildenafil 0.01 μM, 48 h, HCT 116): 856; MFI (hPDE5 mutants [1]; Table 45, Sildenafil 0.04 μM, 48 h, HCT 116): 1041; MFI (hPDE5 mutants [1]; Table 45, Sildenafil 3.33 μM, 48 h, HCT 116): 6896; MFI (hPDE5 mutants [1]; Table 45, Sildenafil 10 μM, 48 h, HCT 116): 12407; MFI (hPDE5 mutants [1]; Table 45, Sildenafil 30 μM, 48 h, HCT 116): 21258; MFI (hPDE5 mutants [1]; Table 45, Sildenafil 1000 μM, 48 h, HCT 116): 21258; MFI (hPDE5 mutants [1]; Tadalafil 0.01 μM, 48 hours, HCT 116 cells): 825; MFI (hPDE5 mutants [2]; Tadalafil 11.11 μM): 12843; MFI (hPDE5 mutants [2]; Tadalafil 33.33 μM): 17164; MFI (hPDE5 mutants [2]; Tadalafil 100 μM): 21113; MFI (hPDE5 mutants [2]; Tadalafil 1000 μM): 21113 |
